Reference: the supplement of paper PMC10567573

B1: ATE1 (parent)
chain: DYFPSEDFYRCGYCKNESGSRSNG

Variants of: B1
Experiment: protein stability index of a GFP-peptide fusion (GPS, HEK-293T) (PSI 1-6); higher = more stable
Settings: c terminus: a fixed tail appended
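Also: lentivirally expressed fusions sorted by FACS into six bins by GFP to DsRed ratio, PSI derived from sequencing read proportions per bin multiplied by bin number.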

| Variant | protein stability index |
| --- | --- |
| DYFPSEDFYRQGYCKNESGSRSNG | 4.36 |
| DYFPSEDFYRAGYCKNESGSRSNG | 3.73 |
| DYFPSEDFYRIGYCKNESGSRSNG | 3.83 |
| DYFPSEDFYREGYCKNESGSRSNG | 4.92 |
| DYFPSEDFYRDGYCKNESGSRSNG | 4.21 |
| DYFPSEDFYRGGYCKNESGSRSNG | 4.36 |
| DYFPSEDFYRKGYCKNESGSRSNG | 4.17 |
| DYFPSEDFYRFGYCKNESGSRSNG | 3.46 |
| DYFPSEDFYRVGYCKNESGSRSNG | 3.73 |
| DYFPSEDFYRTGYCKNESGSRSNG | 4.55 |
| DYFPSEDFYRMGYCKNESGSRSNG | 4.12 |
| DYFPSEDFYRWGYCKNESGSRSNG | 4.12 |
| DYFPSEDFYRLGYCKNESGSRSNG | 2.96 |
| DYFPSEDFYRNGYCKNESGSRSNG | 3.84 |
| DYFPSEDFYRSGYCKNESGSRSNG | 3.54 |
| DYFPSEDFYRHGYCKNESGSRSNG | 4.4 |
| DYFPSEDFYRRGYCKNESGSRSNG | 3.9 |
| DYFPSEDFYRYGYCKNESGSRSNG | 3.42 |
| DYFPSEDFYRPGYCKNESGSRSNG | 4.15 |
| DYFPSEDFYRCLYCKNESGSRSNG | 2.63 |
| DYFPSEDFYRCAYCKNESGSRSNG | 3.25 |
| DYFPSEDFYRCPYCKNESGSRSNG | 1.93 |
| DYFPSEDFYRCSYCKNESGSRSNG | 3.15 |
| DYFPSEDFYRCWYCKNESGSRSNG | 3.35 |

| Variant | protein stability index |
| --- | --- |
| DYFPSEDFYRCYYCKNESGSRSNG | 2.49 |
| DYFPSEDFYRCQYCKNESGSRSNG | 2.64 |
| DYFPSEDFYRCRYCKNESGSRSNG | 4.05 |
| DYFPSEDFYRCEYCKNESGSRSNG | 3.04 |
| DYFPSEDFYRCNYCKNESGSRSNG | 2.69 |
| DYFPSEDFYRCCYCKNESGSRSNG | 2.01 |
| DYFPSEDFYRCDYCKNESGSRSNG | 3.03 |
| DYFPSEDFYRCKYCKNESGSRSNG | 2.68 |
| DYFPSEDFYRCIYCKNESGSRSNG | 2.84 |
| DYFPSEDFYRCMYCKNESGSRSNG | 2.77 |
| DYFPSEDFYRCTYCKNESGSRSNG | 2.99 |
| DYFPSEDFYRCFYCKNESGSRSNG | 3.18 |
| DYFPSEDFYRCVYCKNESGSRSNG | 2.4 |
| DYFPSEDFYRCGYCGNESGSRSNG | 1.95 |
| DYFPSEDFYRCGYCDNESGSRSNG | 2.74 |
| DYFPSEDFYRCGYCVNESGSRSNG | 2.18 |
| DYFPSEDFYRCGYCHNESGSRSNG | 1.64 |
| DYFPSEDFYRCGYCQNESGSRSNG | 2.65 |
| DYFPSEDFYRCGYCENESGSRSNG | 2.46 |
| DYFPSEDFYRCGYCLNESGSRSNG | 1.82 |
| DYFPSEDFYRCGYCWNESGSRSNG | 2.25 |
| DYFPSEDFYRCGYCANESGSRSNG | 1.59 |
| DYFPSEDFYRCGYCYNESGSRSNG | 2.89 |
| DYFPSEDFYRCGYCRNESGSRSNG | 1.17 |

| Variant | protein stability index |
| --- | --- |
| DYFPSEDFYRCGYCTNESGSRSNG | 1.85 |
| DYFPSEDFYRCGYCPNESGSRSNG | 3.41 |
| DYFPSEDFYRCGYCMNESGSRSNG | 3.08 |
| DYFPSEDFYRCGYCFNESGSRSNG | 2.65 |
| DYFPSEDFYRCGYCCNESGSRSNG | 2.17 |
| DYFPSEDFYRCGYCINESGSRSNG | 2.18 |
| DYFPSEDFYRCGYCSNESGSRSNG | 2.42 |
| DYFPSEDFYRCGYCNNESGSRSNG | 2.28 |
| DYFPSEDFYSCGYCKNESGSRSNG | 2.2 |
| DYFPSEDFYKCGYCKNESGSRSNG | 2.44 |
| DYFPSEDFYDCGYCKNESGSRSNG | 2.31 |
| DYFPSEDFYACGYCKNESGSRSNG | 2.71 |
| DYFPSEDFYYCGYCKNESGSRSNG | 2.99 |
| DYFPSEDFYICGYCKNESGSRSNG | 1.88 |
| DYFPSEDFYPCGYCKNESGSRSNG | 2.47 |
| DYFPSEDFYFCGYCKNESGSRSNG | 1.98 |
| DYFPSEDFYHCGYCKNESGSRSNG | 1.82 |
| DYFPSEDFYGCGYCKNESGSRSNG | 2.35 |
| DYFPSEDFYVCGYCKNESGSRSNG | 3.04 |
| DYFPSEDFYECGYCKNESGSRSNG | 2.6 |
| DYFPSEDFYMCGYCKNESGSRSNG | 2.21 |
| DYFPSEDFYWCGYCKNESGSRSNG | 2.33 |
| DYFPSEDFYLCGYCKNESGSRSNG | 1.69 |
| DYFPSEDFYTCGYCKNESGSRSNG | 2.2 |

| Variant | protein stability index |
| --- | --- |
| DYFPSEDFYCCGYCKNESGSRSNG | 1.43 |
| DYFPSEDFYRCGYCKNEMGSRSNG | 1.24 |
| DYFPSEDFYRCGYCKNEPGSRSNG | 2.2 |
| DYFPSEDFYRCGYCKNEQGSRSNG | 2.37 |
| DYFPSEDFYRCGYCKNETGSRSNG | 2.07 |
| DYFPSEDFYRCGYCKNEWGSRSNG | 2.05 |
| DYFPSEDFYRCGYCKNECGSRSNG | 1.08 |
| DYFPSEDFYRCGYCKNEVGSRSNG | 2.17 |
| DYFPSEDFYRCGYCKNEAGSRSNG | 2.67 |
| DYFPSEDFYRCGYCKNENGSRSNG | 1.35 |
| DYFPSEDFYRCGYCKNERGSRSNG | 1.68 |
| DYFPSEDFYRCGYCKNEKGSRSNG | 2.33 |
| DYFPSEDFYRCGYCKNEEGSRSNG | 2.53 |
| DYFPSEDFYRCGYCKNELGSRSNG | 1.84 |
| DYFPSEDFYRCGYCKNEIGSRSNG | 1.53 |
| DYFPSEDFYRCGYCKNEHGSRSNG | 1.95 |
| DYFPSEDFYRCGYCKNEYGSRSNG | 1.69 |
| DYFPSEDFYRCGYCKNEFGSRSNG | 3.12 |
| DYFPSEDFYRCGYCKMESGSRSNG | 2.62 |
| DYFPSEDFYRCGYCKLESGSRSNG | 1.53 |
| DYFPSEDFYRCGYCKAESGSRSNG | 3.01 |
| DYFPSEDFYRCGYCKIESGSRSNG | 1.74 |
| DYFPSEDFYRCGYCKQESGSRSNG | 1.77 |
| DYFPSEDFYRCGYCKHESGSRSNG | 2 |

| Variant | protein stability index |
| --- | --- |
| DYFPSEDFYRCGYCKPESGSRSNG | 2.23 |
| DYFPSEDFYRCGYCKVESGSRSNG | 1.74 |
| DYFPSEDFYRCGYCKTESGSRSNG | 1.97 |
| DYFPSEDFYRCGYCKFESGSRSNG | 1.62 |
| DYFPSEDFYRCGYCKYESGSRSNG | 2.43 |
| DYFPSEDFYRCGYCKWESGSRSNG | 1.41 |
| DYFPSEDFYRCGYCKDESGSRSNG | 2.79 |
| DYFPSEDFYRCGYCKRESGSRSNG | 2.1 |
| DYFPSEDFYRCGYCKCESGSRSNG | 1.47 |
| DYFPSEDFYRCGYCKNFSGSRSNG | 1.71 |
| DYFPSEDFYRCGYCKNSSGSRSNG | 1.83 |
| DYFPSEDFYRCGYCKNCSGSRSNG | 1.63 |
| DYFPSEDFYRCGYCKNYSGSRSNG | 1.49 |
| DYFPSEDFYRCGYCKNQSGSRSNG | 1.9 |
| DYFPSEDFYRCGYCKNISGSRSNG | 1.38 |
| DYFPSEDFYRCGYCKNHSGSRSNG | 2.14 |
| DYFPSEDFYRCGYCKNGSGSRSNG | 1.96 |
| DYFPSEDFYRCGYCKNLSGSRSNG | 2.17 |
| DYFPSEDFYRCGYCKNTSGSRSNG | 2.77 |
| DYFPSEDFYRCGYCKNPSGSRSNG | 1.37 |
| DYFPSEDFYRCGYCKNNSGSRSNG | 2 |
| DYFPSEDFYRCGYCKNASGSRSNG | 1.74 |
| DYFPSEDFYRCGYCKNVSGSRSNG | 1.4 |
| DYFPSEDFYRCGYCKNRSGSRSNG | 2.78 |

| Variant | protein stability index |
| --- | --- |
| DYFPSEDFYRCGYCKNWSGSRSNG | 1.78 |
| DYFPSEDFYRCGYCKNDSGSRSNG | 2.44 |
| DYFPSEDFYRCGYCKNKSGSRSNG | 2.33 |
| DYFPSEDFYRCGYCKNMSGSRSNG | 2.45 |
| DYFPSEDFYRCGYQKNESGSRSNG | 3.69 |
| DYFPSEDFYRCGYWKNESGSRSNG | 3.43 |
| DYFPSEDFYRCGYKKNESGSRSNG | 3.65 |
| DYFPSEDFYRCGYPKNESGSRSNG | 3.53 |
| DYFPSEDFYRCGYAKNESGSRSNG | 4.24 |
| DYFPSEDFYRCGYIKNESGSRSNG | 3.97 |
| DYFPSEDFYRCGYVKNESGSRSNG | 4.1 |
| DYFPSEDFYRCGYMKNESGSRSNG | 4.25 |
| DYFPSEDFYRCGYHKNESGSRSNG | 4.16 |
| DYFPSEDFYRCGYSKNESGSRSNG | 3.94 |
| DYFPSEDFYRCGYTKNESGSRSNG | 4.36 |
| DYFPSEDFYRCGYYKNESGSRSNG | 3.04 |
| DYFPSEDFYRCGYRKNESGSRSNG | 3.8 |
| DYFPSEDFYRCGYLKNESGSRSNG | 3.28 |
| DYFPSEDFYRCGYEKNESGSRSNG | 4.6 |
| DYFPSEDFYRCGYFKNESGSRSNG | 3.44 |
| DYFPSEDFYRCGYNKNESGSRSNG | 3.4 |
| DYFPSEDFYRCGYGKNESGSRSNG | 3.81 |
| DYFPSEDFYRCGYDKNESGSRSNG | 4.47 |
| DYFPSEDFYRCGYCKNESQSRSNG | 2.9 |

| Variant | protein stability index |
| --- | --- |
| DYFPSEDFYRCGYCKNESHSRSNG | 2.03 |
| DYFPSEDFYRCGYCKNESWSRSNG | 3.29 |
| DYFPSEDFYRCGYCKNESKSRSNG | 1.95 |
| DYFPSEDFYRCGYCKNESNSRSNG | 1.84 |
| DYFPSEDFYRCGYCKNESVSRSNG | 2.14 |
| DYFPSEDFYRCGYCKNESCSRSNG | 1.93 |
| DYFPSEDFYRCGYCKNESMSRSNG | 1.38 |
| DYFPSEDFYRCGYCKNESDSRSNG | 2.45 |
| DYFPSEDFYRCGYCKNESFSRSNG | 1.56 |
| DYFPSEDFYRCGYCKNESASRSNG | 1.61 |
| DYFPSEDFYRCGYCKNESTSRSNG | 2.04 |
| DYFPSEDFYRCGYCKNESPSRSNG | 2.57 |
| DYFPSEDFYRCGYCKNESESRSNG | 2.52 |
| DYFPSEDFYRCGYCKNESRSRSNG | 1.76 |
| DYFPSEDFYRCGYCKNESYSRSNG | 1.6 |
| DYFPSEDFYRCGYCKNESLSRSNG | 2 |
| DYFPSEDFYRCGYCKNESSSRSNG | 2.15 |
| DYFPSEDFYRCGYCKNESISRSNG | 2.65 |
| DYFPSEDFYRCGQCKNESGSRSNG | 3.52 |
| DYFPSEDFYRCGACKNESGSRSNG | 2.76 |
| DYFPSEDFYRCGTCKNESGSRSNG | 3.93 |
| DYFPSEDFYRCGGCKNESGSRSNG | 3.4 |
| DYFPSEDFYRCGECKNESGSRSNG | 4.41 |
| DYFPSEDFYRCGNCKNESGSRSNG | 3.83 |

| Variant | protein stability index |
| --- | --- |
| DYFPSEDFYRCGCCKNESGSRSNG | 2.18 |
| DYFPSEDFYRCGMCKNESGSRSNG | 3.8 |
| DYFPSEDFYRCGLCKNESGSRSNG | 2.03 |
| DYFPSEDFYRCGPCKNESGSRSNG | 3.75 |
| DYFPSEDFYRCGRCKNESGSRSNG | 2.23 |
| DYFPSEDFYRCGFCKNESGSRSNG | 2.4 |
| DYFPSEDFYRCGWCKNESGSRSNG | 3.73 |
| DYFPSEDFYRCGKCKNESGSRSNG | 3.5 |
| DYFPSEDFYRCGICKNESGSRSNG | 2.91 |
| DYFPSEDFYRCGSCKNESGSRSNG | 3.69 |
| DYFPSEDFYRCGHCKNESGSRSNG | 3.21 |
| DYFPSEDFMRCGYCKNESGSRSNG | 2.69 |
| DYFPSEDFWRCGYCKNESGSRSNG | 2.46 |
| DYFPSEDFQRCGYCKNESGSRSNG | 2.14 |
| DYFPSEDFTRCGYCKNESGSRSNG | 2.98 |
| DYFPSEDFPRCGYCKNESGSRSNG | 2.57 |
| DYFPSEDFNRCGYCKNESGSRSNG | 2.18 |
| DYFPSEDFLRCGYCKNESGSRSNG | 2.01 |
| DYFPSEDFVRCGYCKNESGSRSNG | 2.21 |
| DYFPSEDFSRCGYCKNESGSRSNG | 2.36 |
